± gives the standard deviation of the averaged measurements.

A short description of the series: total protein half-life in vivo (active degradation + dilution); higher = more stable protein.
Setting [1] is: E. coli NCM3722 delta-clpP delta-lon delta-hslV, growth: N-lim chemostat, doubling time 6 h.
Where [2] appears, read: E. coli NCM3722 delta-clpP, growth: N-lim chemostat, doubling time 6 h.
Where [3] appears, read: E. coli NCM3722 delta-hslV, growth: N-lim chemostat, doubling time 6 h.
The mark [4] stands for this setting: E. coli NCM3722 delta-lon, growth: N-lim chemostat, doubling time 6 h.
The mark [5] stands for this setting: E. coli NCM3722 delta-smpB, growth: N-lim chemostat, doubling time 6 h.
[6] abbreviates: wild type E. coli NCM3722, growth: C-lim chemostat, doubling time 3 h.
The mark [7] stands for this setting: wild type E. coli NCM3722, growth: C-lim chemostat, doubling time 6 h.
Where [8] appears, read: wild type E. coli NCM3722, growth: C-lim chemostat, doubling time 12 h.
The mark [9] stands for this setting: wild type E. coli NCM3722, growth: N-lim chemostat, doubling time 6 h.
Where [10] appears, read: wild type E. coli NCM3722, growth: N-lim chemostat, doubling time 12 h.
Setting [11] is: wild type E. coli NCM3722, growth: P-lim chemostat, doubling time 6 h.
Setting [12] is: wild type E. coli NCM3722, growth: P-lim chemostat, doubling time 12 h.

For “MAGPVLYQDRAMKQITFAPRNHLLTNTNTWTPDSQWLVFDVRPSGASFTGETIERVNIHTGEVEVIYRASQGAHVGVVTVHPKSEKYVFIHGPENPDETWHYDFHHRRGVIVEGGKMSNLDAMDITAPYTPGVLRGGSHVHVFSPNGERVSFTYNDHVMHELDPALDLRNVGVAAPFGPVNVQKQHPREYSGSHWCVLVSKTTPTPQPGSDEINRAYEEGWVGNHALAFIGDTLSPKGEKVPELFIVELPQDEAGWKAAGDAPLSGTETTLPAPPRGVVQRRLTFTHHRAYPGLVNVPRHWVRCNPQGTQIAFLMRDDNGIVQLWLISPQGGEPRQLTHNKTDIQSAFNWHPSGEWLGFVLDNRIACAHAQSGEVEYLTEHHANSPSADAVVFSPDGQWLAWMEGGQLWITETDR”, the “total protein half-life in vivo” value is, setting by setting: under setting [1], 5.27 ± 0.21 h; under setting [2], 4.73 ± 0.52 h; under setting [3], 4.97 ± 0.094 h; under setting [4], 4.8 ± 0.15 h; under setting [5], 4.67 ± 0.09 h; under setting [6], 3.17 ± 0.043 h. Besides, the “total protein half-life in vivo” value under setting [7] came out at 5.92 ± 0.44 h; the “total protein half-life in vivo” value under setting [8] stood at 11.1 ± 1.4 h; the “total protein half-life in vivo” value under setting [9] amounted to 4.8 ± 0.56 h; the “total protein half-life in vivo” value under setting [10] amounted to 8.45 ± 0.1 h; the “total protein half-life in vivo” value under setting [11] was 6.23 ± 0.21 h; the “total protein half-life in vivo” value under setting [12] is 11.3 ± 0.79 h.

Turning to “MNMKTIEDVFIHLLSDTYSAEKQLTRALAKLARATSNEKLSQAFHAHLEETHGQIERIDQVVESESNLKIKRMKCVAMEGLIEEANEVIESTEKNEVRDAALIAAAQKVEHYEIASYGTLATLAEQLGYRKAAKLLKETLEEEKATDIKLTDLAINNVNKKAENKA”, the “total protein half-life in vivo” value is, setting by setting: under setting [1], 5.25 ± 0.25 h; under setting [3], 5.18 ± 0.69 h; under setting [4], 6.51 ± 0.95 h; under setting [5], 4.94 ± 0.081 h; under setting [6], 3.02 ± 0.13 h; under setting [7], 5.04 ± 0.77 h. In addition, the “total protein half-life in vivo” value came out at 10.5 ± 1.4 h under setting [8]; 4.881 ± 0.03 h under setting [9]; 7.99 ± 0.53 h under setting [10]; 5.294 ± 0.042 h under setting [11]; 10.3 ± 0.62 h under setting [12].

Regarding “MGSINLRIDDELKARSYAALEKMGVTPSEALRLMLEYIADNERLPFKQTLLSDEDAELVEIVKERLRNPKPVRVTLDEL [P0C079]”, the “total protein half-life in vivo” value runs as follows: under setting [1], 3.41 ± 0.82 h; under setting [2], 1.33 h; under setting [7], 1.45 h; under setting [12], 2.75 h.

For the sequence “MKKLALILFMGTLVSFYADAGRKPCSGSKGGISHCTAGGKFVCNDGSISASKKTCTN [P0ACW4]”, the “total protein half-life in vivo” value under setting [6] turned out to be 0.862 h, the “total protein half-life in vivo” value under setting [7] was found to be 4.49 h and the “total protein half-life in vivo” value under setting [8] stood at 4.67 h.

In the case of “MSFFHASQRDALNQSLAEVQGQINVSFEFFPPRTSEMEQTLWNSIDRLSSLKPKFVSVTYGANSGERDRTHSIIKGIKDRTGLEAAPHLTCIDATPDELRTIARDYWNNGIRHIVALRGDLPPGSGKPEMYASDLVTLLKEVADFDISVAAYPEVHPEAKSAQADLLNLKRKVDAGANRAITQFFFDVESYLRFRDRCVSAGIDVEIIPGILPVSNFKQAKKFADMTNVRIPAWMAQMFDGLDDDAETRKLVGANIAMDMVKILSREGVKDFHFYTLNRAEMSYAICHTLGVRPGL [P0AEZ1]”, the “total protein half-life in vivo” value came out at 3.64 ± 0.65 h under setting [1]; 3.18 ± 0.53 h under setting [2]; 2.96 ± 0.52 h under setting [3]; 3.54 ± 0.14 h under setting [4]; 3.16 ± 0.31 h under setting [5]; 2.99 ± 0.18 h under setting [6]. In addition, the “total protein half-life in vivo” value under setting [7] came to 4.97 ± 0.25 h; the “total protein half-life in vivo” value under setting [8] was 8.59 ± 0.26 h; the “total protein half-life in vivo” value under setting [9] is 3.02 ± 0.1 h; the “total protein half-life in vivo” value under setting [10] is 4.47 ± 0.053 h; the “total protein half-life in vivo” value under setting [11] stood at 5.51 ± 0.12 h; the “total protein half-life in vivo” value under setting [12] came to 10.7 ± 0.34 h.

For the sequence “MNSIFTEENLLAFTTAARFGSFSKAAEELGLTTSAISYTIKRMETGLDVVLFTRSTRSIELTESGRYFFRKATDLLNDFYAIKRRIDTISQGIEARVRICINQLLYTPKHTARLLQVLKKQFPTCQITVTTEVYNGVWDAIINNQANIAIGAPDTLLDGGGIDYTEIGAIRWAFAIAPDHPLAFVPEPIAESQLRLYPNIMVEDTAHTINKKVGWLLHGQESILVPDFNTKCQCQILGEGIGFLPDYMVREAMTQSLLVTRQIHNPRQDSRMLLATQHSATGQVTQWIKKQFAPNGILTGIYQDLLHREN”, the “total protein half-life in vivo” value under setting [1] stood at 5.9 h.

In the case of “MYHDVSYLLSRLINGPLSLRQIYFASSNGPVPDLAYQVDFPRLEIVLEGEFVDTGAGATLVPGDVLYVPAGGWNFPQWQAPATTFSVLFGKQQLGFSVVQWDGKQYQNLAKQHVARRGPRIGSFLLQTLNEMQMQPQEQQTARLIVASLLSHCRDLLGSQIQTASRSQALFEAIRDYIDERYASALTRESVAQAFYISPNYLSHLFQKTGAIGFNEYLNHTRLEHAKTLLKGYDLKVKEVAHACGFVDSNYFCRLFRKNTERSPSEYRRQYHSQLTEKPTTPE”, the “total protein half-life in vivo” value was 5.77 ± 0.063 h under setting [1]; 3.94 h under setting [2]; 4.1 h under setting [3]; 5.72 ± 1.3 h under setting [4]; 4.21 ± 0.49 h under setting [5]; 2.6 h under setting [6]. For the same sequence, the “total protein half-life in vivo” value by setting is: under setting [7], 6.09 ± 1.5 h; under setting [8], 8.5207 ± 0.0056 h; under setting [9], 3.8 ± 0.55 h; under setting [10], 6.04 h; under setting [11], 3.26 h; under setting [12], 5.79 ± 0.83 h.

For the origin of these results see the supplement of paper PMC11246515.
